The source of these data is article PMC7423246, “A Peptide–Lectin Fusion Strategy for Developing a Glycan Probe for Use in Various Assay Formats” (Chemosensors (Basel, Switzerland), 2019).

The target of this test is HIV coat protein gp120 (oligomannose bearing) (HIV (Human Immunodeficiency Virus), UniProt P04578 33-511, high-mannose-type N-glycans (oligomannose), sites not stated). The test is described as follows: MST; NT-647 labeled PFA held constant, serial dilution of gp120, in 0.1% PBST; 'effective' binding affinity. The following applies: both partners purified.

B1: NT-647 labeled PFA (natural protein)
chain: MSKYAVANQWGGSSAPWHPGGTWVLGARDNQNVVAIEIKSGDGGKSFTGTMTYAGEGPIGFKAQRTGQNQYNVENQWGGNDAPWHPGGKWVIGGRDNQNVIALSVTSSDGGKNLSGTNTYANEGPIGFRGQIEVSHPQAPF
modifications: NT-647 fluorophore on amines (amine-reactive NT-647-NHS labelling kit)
As to B1, binding was characterised by a dissociation constant (Kd) of 4.1 ± 1.4 nM.
